One assay deals with CynoCD100-HEK293 (cynomolgus monkey). Put plainly: FACS.
Assay [1] has as its target CynoCD100-His (cynomolgus monkey). In words: ELISA; FIG. 5F.
Assay [2] shares this target. In words: ELISA.
In assay [3] the target is full-length human CD100 protein HuCD100 on cells (human, UniProt Q92854 22-862). Put plainly: FACS; HuPBMC cells.
The target of assay [4] is HuCD100-Fc (in-house prepared) (human, UniProt Q92854 22-734, biotinylated in the Plexin binding and blocking assays (sites not given)). In words: FACS blocking; HuPlexin-B1-HEK293, FIG. 12A.
The target in assay [5] is T1, full-length mouse CD100 protein MusCD100 on cells (mouse, UniProt O09126 24-861).
T1 chain: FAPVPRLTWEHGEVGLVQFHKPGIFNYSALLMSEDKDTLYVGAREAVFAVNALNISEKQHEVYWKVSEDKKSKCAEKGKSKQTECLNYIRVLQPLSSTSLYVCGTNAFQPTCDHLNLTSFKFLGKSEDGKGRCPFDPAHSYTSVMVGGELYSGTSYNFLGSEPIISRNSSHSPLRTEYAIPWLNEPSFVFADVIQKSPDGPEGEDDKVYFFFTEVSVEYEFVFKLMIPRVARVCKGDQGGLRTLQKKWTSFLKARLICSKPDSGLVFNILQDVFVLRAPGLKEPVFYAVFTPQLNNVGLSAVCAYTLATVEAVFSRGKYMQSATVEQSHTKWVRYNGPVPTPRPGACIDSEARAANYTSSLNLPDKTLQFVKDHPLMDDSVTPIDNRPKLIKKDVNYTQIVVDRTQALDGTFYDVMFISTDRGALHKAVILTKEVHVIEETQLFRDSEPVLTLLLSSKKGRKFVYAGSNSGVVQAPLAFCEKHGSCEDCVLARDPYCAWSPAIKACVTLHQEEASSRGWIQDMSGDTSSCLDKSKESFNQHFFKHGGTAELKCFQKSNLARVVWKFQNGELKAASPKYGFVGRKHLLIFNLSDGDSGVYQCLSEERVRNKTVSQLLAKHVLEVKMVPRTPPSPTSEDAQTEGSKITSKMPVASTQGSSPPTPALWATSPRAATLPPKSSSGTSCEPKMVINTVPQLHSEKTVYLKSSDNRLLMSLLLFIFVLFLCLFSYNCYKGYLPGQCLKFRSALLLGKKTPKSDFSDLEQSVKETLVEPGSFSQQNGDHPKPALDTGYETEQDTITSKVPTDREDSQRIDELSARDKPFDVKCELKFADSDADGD
Put plainly: FACS.

B1: Pepinemab (antibody, V domains shown)
VH: QVQLVQSGAEVKKPGSSVKVSCKASGYSFSDYYMHWVRQAPGQGLEWMGQINPTTGGASYNQKFKGKATITVDKSTSTAYMELSSLRSEDTAVYYCARYYYGRHFDVWGQGTTVTVSS
VL: DIVMTQSPDSLAVSLGERATINCKASQSVDYDGDSYMNWYQQKPGQPPKLLIYAASNLESGVPDRFSGSGSGTDFTLTISSLQAEDVAVYYCQQSNEDPYTFGQGTKLEIK
As for B1, the EC50 with CynoCD100-HEK293 amounted to 0.365 nM; with CynoCD100-His [1] it was 0.0993 nM; in the assay with CynoCD100-His [2] it was 0.0938 nM; in assay [3] it was 0.479 nM; in assay [5] it was 0.274 nM. This molecule gave an IC50 in assay [4] of 0.896 nM.

The record behind these values is patent US20260028402A1 (published 2026).
